From patent US20250171776A1, “NON-CANONICAL CELL-PENETRATING PEPTIDES FOR ANTISENSE OLIGOMER DELIVERY” (priority 2023, published 2025)
Where no end group is shown, it is not given here. [ ]: non-standard residue; d: D form. Iph = iodophenylalanine

How the values were obtained:
Type in all cases: cell-based
TH-1 renal cells = assay: Lactate dehydrogenase (LDH) release assay in TH-1 renal cells; conditions: LDH release at 18 hours
Description: (§1) The media from the cells was analyzed for LDH release with an LDH assay and the percentage of LDH release was calculated relative to fully lysed cells.
(§2) Cytotoxicity assays were performed in HeLa 654 cells or TH-1 renal cells. TH-1 cells were maintained in DMEM supplemented with 10% (v/v) fetal bovine serum (FBS) and 1% (v/v) penicillin-streptomycin at 37° C. and 5% CO2H-1. Cells were plated at 5,000 cells/well in a 96-well plate 18-hours prior to treatment and treated with PMO-peptide compounds as described above. HeLa cell LDH assays were performed concurrently on the cells treated for Flow cytometry, so all plating and treatment protocols match those described above.
(§3) 17 hours after cell treatment, the Promega CytoTox lysis solution was added to 3 wells of each plate as a fully lysed control (100% LDH-release). 18 hours after treatment, cell supernatant was transferred to a new 96-well plate for analysis of LDH release. To each well of the 96-well plate containing supernatant was added CytoTox 96 Reagent (Promega). […] Equal volume of Stop Solution was added to each well, mixed, and the absorbance of each well was measured at 490 nm. The measurement of vehicle-treated cells was subtracted from each measurement, and % LDH release was calculated as % cytotoxicity=100×Experimental LDH Release (OD490)/Maximum LDH Release (OD490).

HeLa 654 cells [1] = assay: HeLa 654 eGFP assay (flow cytometry, mean eGFP fluorescence, 22 h); conditions: 1 μM, 22 h
Description: Purified constructs were then tested using an activity-based readout in which nuclear delivery results in fluorescence. Briefly, HeLa cells stably transfected with an Enhanced Green Fluorescent Protein (eGFP) gene interrupted by a mutated intron of β-globin (IVS2-654) produce a non-fluorescent eGFP protein. As used herein, Hela-654 cells refers to the Hela cells transfected with an Enhanced Green Fluorescent Protein (eGFP) gene interrupted by a mutated intron of β-globin (IVS2-654) and Hela-654 eGFP Assay is used to refer to an Assay that uses the Hela-654 cells. Successful delivery of PMO IVS2-654 to the nucleus results in corrective splicing and eGFP synthesis.
The amount of PMO delivered to the nucleus is therefore correlated with eGFP fluorescence, quantified by flow cytometry. Activity was reported as mean fluorescence intensity (MFI) relative to PMO alone. This activity assay provides indirect information on how much active PMO is delivered to the nucleus. Relative efficiency of a PMO-CPP conjugate was characterized by comparing activity to internal concentration.
[…] 18 h prior to treatment, the cells were plated at a density of 5,000 cells per well in a 96-well plate in DMEM supplemented with 10% FBS and 1% penicillin-streptomycin.
For individual peptide testing, PPMOs were dissolved in phosphate buffered saline (PBS) without Ca^2+ or Mg^2+ at a concentration of 1 mM (determined by UV absorbance of the PMO) before being diluted in Dulbecco's modified eagle medium (DMEM). Cells were incubated at the designated concentrations in triplicate for 22 h at 37° C. and 5% CO2. Next, the treatment media was removed, and the cells were washed once before being incubated with 0.25% Trypsin-EDTA for 15 min at 37° C. and 5% CO2. Lifted cells were transferred to a V-bottom 96-well plate and washed once with PBS, before being resuspended in PBS containing 2% FBS and 2 μg/mL propidium iodide (PI). Flow cytometry analysis was carried out on a BD LSRII flow cytometer. Gates were applied to the data to ensure that cells that were positive for propidium iodide or had forward/side scatter readings that were sufficiently different from the main cell population were excluded. Each sample was capped at 5,000 gated events.
Analysis was conducted using Graphpad Prism 7 and FlowJo. For each sample, the mean fluorescence intensity (MFI) and the number of gated cells were measured. To report activity, triplicate MFI values were averaged and normalized to the PMO alone condition.

HELA-654 cells = assay: Hela-654 eGFP assay (incucyte imaging, GFP positive cells, 72 h); conditions: chimeric peptide PMO conjugates, 72 h, read-out: EC50 (at 72 h)
Description: HELA-654 cells were imaged at 72 hours with an incucyte and the number of GFP positive cells versus total cell counts were calculated with the incucyte image analysis software. Statistical analysis was conducted using a one-way analysis of variance (ANOVA) test with Dunnett's multiple comparison test. Bars represent mean±standard deviation (SD), with P<0.05 was considered to indicate statistical significance, (**** p<0.0001, *** […], ** p<0.01, * p<0.05).
HELA-654 cells were imaged at 72 hours with an incucyte and the number of GFP positive cells versus total cell counts were calculated with the incucyte image analysis software.

HeLa 654 cells [2] = assay: Lactate dehydrogenase (LDH) release assay in HeLa 654 cells; conditions: 50 μM
Description: as §1, §2, §3

Lys-Gln-Lys-Thr-Ser-Iph-Gly-Arg-Lys-Trp-Lys-Gln-Lys-Thr-Ser-Iph-Gly-Arg-Lys-Trp-Lys-Lys (KQKTS[Iph]GRKWKQKTS[Iph]GRKWKK; not fully specified (N-terminus, C-terminus); printed as Lys-Gln-Lys-Thr-Ser-Iph-Gly-Arg-Lys-Trp-Lys-Gln-Lys-Thr-Ser-Iph-Gly-Arg-Lys-Trp-Lys-Lys; also: PMO IVS2-654 conjugate) [CXD1B]
Therapeutic window (HeLa-654 eGFP efficacy versus LDH release in TH-1 renal cells) (TH-1 renal cells): wider therapeutic window in comparison to other PMO-peptide conjugates
PMO delivery (mean eGFP fluorescence relative to vehicle) (HeLa 654 cells [1]): high PMO delivery
EC50 (HELA-654 cells): 3.54 µM
Toxicity: LDH release (HeLa 654 cells [2]): lower toxicity than the CXP1-CXP1 sequence
